{
  "source": "paper PMC4231325",
  "about": "(Scientific Reports, 2014)",
  "proteins": {"B1": {"name": "SYCE3 (purified recombinant protein) (natural protein, Mus musculus, UniProt B5KM66 1-88, looked up)", "chain": "MADSDPGERSYDNMLKMLSDLNKDLEKLLEEMEKISVQATWMAYDMVVMRTNPTLAESMRRLEDAFLNCKEEMEKNWQELLTETKRKQ"}},
  "biological_target": "the molecule itself",
  "experiment": "AUC",
  "data": [
    {"protein": "B1", "values": [
      {"measurement": "stoichiometry N", "result": 2}
    ]}
  ]
}
